# Measurements reported in the supplement of paper PMC10567573.
# B1: ADAMTSL2 (parent)
# chain: KKPPEESTCFERPCFKWYTSPWSE
# Variants of: B1
# Experiment: protein stability index of a GFP-peptide fusion (GPS, HEK-293T) (PSI 1-6); higher = more stable
# Settings: c terminus: a fixed tail appended
# 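Further: lentivirally expressed fusions sorted by FACS into six bins by GFP to DsRed ratio, PSI derived from sequencing read proportions per bin multiplied by bin number.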
row,Variant,protein stability index
1,KKPPEESTCFERPCFKWYVSPWSE,2.78
2,KKPPEESTCFERPCFKWYKSPWSE,2.03
3,KKPPEESTCFERPCFKWYRSPWSE,2.22
4,KKPPEESTCFERPCFKWYASPWSE,2.28
5,KKPPEESTCFERPCFKWYNSPWSE,3.43
6,KKPPEESTCFERPCFKWYLSPWSE,2.73
7,KKPPEESTCFERPCFKWYWSPWSE,2.05
8,KKPPEESTCFERPCFKWYISPWSE,2.35
9,KKPPEESTCFERPCFKWYESPWSE,3.38
10,KKPPEESTCFERPCFKWYFSPWSE,2.28
11,KKPPEESTCFERPCFKWYCSPWSE,2.13
12,KKPPEESTCFERPCFKWYSSPWSE,3.24
13,KKPPEESTCFERPCFKWYGSPWSE,2.82
14,KKPPEESTCFERPCFKWYHSPWSE,2.65
15,KKPPEESTCFERPCFKWYDSPWSE,2.65
16,KKPPEESTCFERPCFKWYPSPWSE,2.86
17,KKPPEESTCFERPCFKWYYSPWSE,1.84
18,KKPPEESTCFERPCFKWYMSPWSE,2.2
19,KKPPEESTCFERPCFKWYTSPWSF,2.27
20,KKPPEESTCFERPCFKWYTSPWSH,2.04
21,KKPPEESTCFERPCFKWYTSPWSS,2.07
22,KKPPEESTCFERPCFKWYTSPWSR,1.83
23,KKPPEESTCFERPCFKWYTSPWSA,2.06
24,KKPPEESTCFERPCFKWYTSPWSI,1.73

row,Variant,protein stability index
1,KKPPEESTCFERPCFKWYTSPWSG,2.27
2,KKPPEESTCFERPCFKWYTSPWSQ,2.37
3,KKPPEESTCFERPCFKWYTSPWSK,1.82
4,KKPPEESTCFERPCFKWYTSPWSN,1.6
5,KKPPEESTCFERPCFKWYTSPWSW,2.09
6,KKPPEESTCFERPCFKWYTSPWSV,1.83
7,KKPPEESTCFERPCFKWYTSPWSM,1.68
8,KKPPEESTCFERPCFKWYTSPWSD,2.76
9,KKPPEESTCFERPCFKWYTSPWST,1.97
10,KKPPEESTCFERPCFKWYTSPWSL,1.72
11,KKPPEESTCFERPCFKWYTSPWSC,2.22
12,KKPPEESTCFERPCFKWYTSPWSY,2.11
13,KKPPEESTCFERPCFKWYTSPWSP,2.4
14,KKPPEESTCFERPCFKWYTFPWSE,2.02
15,KKPPEESTCFERPCFKWYTHPWSE,2.25
16,KKPPEESTCFERPCFKWYTRPWSE,2.86
17,KKPPEESTCFERPCFKWYTTPWSE,2.15
18,KKPPEESTCFERPCFKWYTEPWSE,2.11
19,KKPPEESTCFERPCFKWYTDPWSE,2.42
20,KKPPEESTCFERPCFKWYTIPWSE,2.59
21,KKPPEESTCFERPCFKWYTQPWSE,2.35
22,KKPPEESTCFERPCFKWYTGPWSE,2.29
23,KKPPEESTCFERPCFKWYTAPWSE,2.88
24,KKPPEESTCFERPCFKWYTNPWSE,2.58

row,Variant,protein stability index
1,KKPPEESTCFERPCFKWYTWPWSE,4.33
2,KKPPEESTCFERPCFKWYTYPWSE,2.37
3,KKPPEESTCFERPCFKWYTLPWSE,1.95
4,KKPPEESTCFERPCFKWYTMPWSE,2.08
5,KKPPEESTCFERPCFKWYTVPWSE,1.93
6,KKPPEESTCFERPCFKWYTKPWSE,2.61
7,KKPPEESTCFERPCFKWYTPPWSE,2.04
8,KKPPEESTCFERPCFKWYTCPWSE,1.99
9,KKPPEESTCFERPCFKWYTSLWSE,2.4
10,KKPPEESTCFERPCFKWYTSKWSE,2.7
11,KKPPEESTCFERPCFKWYTSSWSE,1.87
12,KKPPEESTCFERPCFKWYTSMWSE,1.44
13,KKPPEESTCFERPCFKWYTSHWSE,2.46
14,KKPPEESTCFERPCFKWYTSDWSE,3.04
15,KKPPEESTCFERPCFKWYTSIWSE,2.38
16,KKPPEESTCFERPCFKWYTSVWSE,2.33
17,KKPPEESTCFERPCFKWYTSQWSE,2.2
18,KKPPEESTCFERPCFKWYTSCWSE,2.39
19,KKPPEESTCFERPCFKWYTSWWSE,1.68
20,KKPPEESTCFERPCFKWYTSEWSE,2.72
21,KKPPEESTCFERPCFKWYTSFWSE,1.78
22,KKPPEESTCFERPCFKWYTSAWSE,2.41
23,KKPPEESTCFERPCFKWYTSRWSE,2.17
24,KKPPEESTCFERPCFKWYTSGWSE,2.16

row,Variant,protein stability index
1,KKPPEESTCFERPCFKWYTSYWSE,1.73
2,KKPPEESTCFERPCFKWYTSTWSE,2.75
3,KKPPEESTCFERPCFKWYTSNWSE,2.16
4,KKPPEESTCFERPCFKWYTSPWFE,1.69
5,KKPPEESTCFERPCFKWYTSPWNE,2.5
6,KKPPEESTCFERPCFKWYTSPWME,2.04
7,KKPPEESTCFERPCFKWYTSPWYE,2.35
8,KKPPEESTCFERPCFKWYTSPWVE,2.23
9,KKPPEESTCFERPCFKWYTSPWHE,2.55
10,KKPPEESTCFERPCFKWYTSPWEE,3.02
11,KKPPEESTCFERPCFKWYTSPWPE,2.6
12,KKPPEESTCFERPCFKWYTSPWLE,2.34
13,KKPPEESTCFERPCFKWYTSPWIE,2.6
14,KKPPEESTCFERPCFKWYTSPWDE,2.48
15,KKPPEESTCFERPCFKWYTSPWQE,2.47
16,KKPPEESTCFERPCFKWYTSPWRE,2.22
17,KKPPEESTCFERPCFKWYTSPWWE,2.19
18,KKPPEESTCFERPCFKWYTSPWGE,1.91
19,KKPPEESTCFERPCFKWYTSPWAE,1.74
20,KKPPEESTCFERPCFKWYTSPWKE,2.53
21,KKPPEESTCFERPCFKWYTSPWCE,2.23
22,KKPPEESTCFERPCFKWYTSPWTE,1.87
